# Reference: the supplement of paper PMC10567573
# B1: SEC22B (parent)
# chain: FPKKLAFAYLEDLHSEFDEQHGKK
# Variants of: B1
# Experiment: protein stability index of a GFP-peptide fusion (GPS, HEK-293T) (PSI 1-6); higher = more stable
# Conditions: c terminus: a fixed tail appended
# 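Further: lentivirally expressed fusions sorted by FACS into six bins by GFP to DsRed ratio, PSI derived from sequencing read proportions per bin multiplied by bin number.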
row,Variant,protein stability index
1,FPKKLAFAYLEDLHYEFDEQHGKK,2.08
2,FPKKLAFAYLEDLHVEFDEQHGKK,2.88
3,FPKKLAFAYLEDLHAEFDEQHGKK,2.15
4,FPKKLAFAYLEDLHPEFDEQHGKK,2.42
5,FPKKLAFAYLEDLHDEFDEQHGKK,2.89
6,FPKKLAFAYLEDLHQEFDEQHGKK,2.73
7,FPKKLAFAYLEDLHTEFDEQHGKK,2.41
8,FPKKLAFAYLEDLHIEFDEQHGKK,2.25
9,FPKKLAFAYLEDLHLEFDEQHGKK,2.85
10,FPKKLAFAYLEDLHREFDEQHGKK,2.41
11,FPKKLAFAYLEDLHFEFDEQHGKK,2.15
12,FPKKLAFAYLEDLHHEFDEQHGKK,2.22
13,FPKKLAFAYLEDLHMEFDEQHGKK,2.5
14,FPKKLAFAYLEDLHKEFDEQHGKK,2.54
15,FPKKLAFAYLEDLHGEFDEQHGKK,2.25
16,FPKKLAFAYLEDLHWEFDEQHGKK,2.27
17,FPKKLAFAYLEDLHEEFDEQHGKK,2.9
18,FPKKLAFAYLEDLHNEFDEQHGKK,2.67
19,FPKKLAFAYLEDLHCEFDEQHGKK,2.25
20,FPKKLAFAYLEDLHSENDEQHGKK,2.76
21,FPKKLAFAYLEDLHSERDEQHGKK,2.85
22,FPKKLAFAYLEDLHSEHDEQHGKK,2.66
23,FPKKLAFAYLEDLHSEKDEQHGKK,2.98
24,FPKKLAFAYLEDLHSECDEQHGKK,2.87

row,Variant,protein stability index
1,FPKKLAFAYLEDLHSEDDEQHGKK,3.03
2,FPKKLAFAYLEDLHSESDEQHGKK,2.64
3,FPKKLAFAYLEDLHSEMDEQHGKK,2.45
4,FPKKLAFAYLEDLHSEGDEQHGKK,2.4
5,FPKKLAFAYLEDLHSEPDEQHGKK,2.75
6,FPKKLAFAYLEDLHSEADEQHGKK,2.68
7,FPKKLAFAYLEDLHSEYDEQHGKK,2.91
8,FPKKLAFAYLEDLHSEVDEQHGKK,2.67
9,FPKKLAFAYLEDLHSEWDEQHGKK,2.57
10,FPKKLAFAYLEDLHSEIDEQHGKK,2.6
11,FPKKLAFAYLEDLHSEEDEQHGKK,3.04
12,FPKKLAFAYLEDLHSEQDEQHGKK,3.28
13,FPKKLAFAYLEDLHSELDEQHGKK,2.54
14,FPKKLAFAYLEDLHSETDEQHGKK,2.99
15,FPKKLAFAYLEWLHSEFDEQHGKK,2.49
16,FPKKLAFAYLETLHSEFDEQHGKK,2.39
17,FPKKLAFAYLELLHSEFDEQHGKK,1.77
18,FPKKLAFAYLEGLHSEFDEQHGKK,2.77
19,FPKKLAFAYLERLHSEFDEQHGKK,1.93
20,FPKKLAFAYLENLHSEFDEQHGKK,2.97
21,FPKKLAFAYLEPLHSEFDEQHGKK,2.33
22,FPKKLAFAYLEKLHSEFDEQHGKK,2.38
23,FPKKLAFAYLEQLHSEFDEQHGKK,2.22
24,FPKKLAFAYLEHLHSEFDEQHGKK,2.25

row,Variant,protein stability index
1,FPKKLAFAYLEVLHSEFDEQHGKK,1.85
2,FPKKLAFAYLEYLHSEFDEQHGKK,1.89
3,FPKKLAFAYLEMLHSEFDEQHGKK,2.39
4,FPKKLAFAYLEILHSEFDEQHGKK,1.72
5,FPKKLAFAYLESLHSEFDEQHGKK,2.16
6,FPKKLAFAYLEDLHSEFDEQMGKK,2.69
7,FPKKLAFAYLEDLHSEFDEQVGKK,2.28
8,FPKKLAFAYLEDLHSEFDEQKGKK,2.55
9,FPKKLAFAYLEDLHSEFDEQLGKK,2.25
10,FPKKLAFAYLEDLHSEFDEQQGKK,2.66
11,FPKKLAFAYLEDLHSEFDEQDGKK,3.02
12,FPKKLAFAYLEDLHSEFDEQEGKK,2.85
13,FPKKLAFAYLEDLHSEFDEQRGKK,2.37
14,FPKKLAFAYLEDLHSEFDEQGGKK,2.5
15,FPKKLAFAYLEDLHSEFDEQAGKK,2.93
16,FPKKLAFAYLEDLHSEFDEQSGKK,2.6
17,FPKKLAFAYLEDLHSEFDEQYGKK,2.37
18,FPKKLAFAYLEDLHSEFDEQTGKK,2.69
19,FPKKLAFAYLEDLHSEFDEQCGKK,2.28
20,FPKKLAFAYLEDLHSEFDEQIGKK,1.98
21,FPKKLAFAYLEDLHSEFDEQWGKK,2.34
22,FPKKLAFAYLEDLHSEFDEQNGKK,3.07
23,FPKKLAFAYLEDLHSEFDEQPGKK,2.41
24,FPKKLAFAYLEDLHSEFDEQFGKK,2.46

row,Variant,protein stability index
1,FPKKLAFAYLEDLYSEFDEQHGKK,2.28
2,FPKKLAFAYLEDLRSEFDEQHGKK,2.55
3,FPKKLAFAYLEDLDSEFDEQHGKK,2.53
4,FPKKLAFAYLEDLCSEFDEQHGKK,2.07
5,FPKKLAFAYLEDLISEFDEQHGKK,1.68
6,FPKKLAFAYLEDLNSEFDEQHGKK,2.46
7,FPKKLAFAYLEDLKSEFDEQHGKK,2.96
8,FPKKLAFAYLEDLVSEFDEQHGKK,1.98
9,FPKKLAFAYLEDLQSEFDEQHGKK,2.85
10,FPKKLAFAYLEDLLSEFDEQHGKK,2.31
11,FPKKLAFAYLEDLTSEFDEQHGKK,2.89
12,FPKKLAFAYLEDLFSEFDEQHGKK,1.91
13,FPKKLAFAYLEDLGSEFDEQHGKK,2.57
14,FPKKLAFAYLEDLESEFDEQHGKK,2.13
15,FPKKLAFAYLEDLASEFDEQHGKK,2.47
16,FPKKLAFAYLEDLMSEFDEQHGKK,2.23
17,FPKKLAFAYLEDLWSEFDEQHGKK,2.06
18,FPKKLAFAYLEDLSSEFDEQHGKK,2.75
19,FPKKLAFAYLEDLPSEFDEQHGKK,2.2
20,FPKKLAFAYLEDLHSEFDEHHGKK,2.47
21,FPKKLAFAYLEDLHSEFDECHGKK,2.09
22,FPKKLAFAYLEDLHSEFDEMHGKK,2.03
